Laboratory results: paper PMC4669500, “Characterization of Pseudooxynicotine Amine Oxidase of Pseudomonas putida S16 that Is Crucial for Nicotine Degradation” (Scientific Reports, 2015)

Tests used:
[1] = molecular target: T1, Pnao (pseudooxynicotine amine oxidase) (Pseudomonas putida, UniProt F8G0P1); assay: HPLC and UV-Vis of cofactor released by boiling purified protein; format: binding; details: co-purified cofactor, non-covalent (released by boiling)
T1 construct: full-length, His6-tagged (pET28a NcoI-XhoI, tag kept), expressed in E. coli C43(DE3), about 54 kDa; FAD-containing

CNCCCC(=O)c1cccnc1 = assay: purified protein; format: biochemical, Pseudomonas putida; details: 30 °C, 25 mM sodium phosphate pH 8.5, O2 as oxidant

T1 sequence (F8G0P1 whole entry): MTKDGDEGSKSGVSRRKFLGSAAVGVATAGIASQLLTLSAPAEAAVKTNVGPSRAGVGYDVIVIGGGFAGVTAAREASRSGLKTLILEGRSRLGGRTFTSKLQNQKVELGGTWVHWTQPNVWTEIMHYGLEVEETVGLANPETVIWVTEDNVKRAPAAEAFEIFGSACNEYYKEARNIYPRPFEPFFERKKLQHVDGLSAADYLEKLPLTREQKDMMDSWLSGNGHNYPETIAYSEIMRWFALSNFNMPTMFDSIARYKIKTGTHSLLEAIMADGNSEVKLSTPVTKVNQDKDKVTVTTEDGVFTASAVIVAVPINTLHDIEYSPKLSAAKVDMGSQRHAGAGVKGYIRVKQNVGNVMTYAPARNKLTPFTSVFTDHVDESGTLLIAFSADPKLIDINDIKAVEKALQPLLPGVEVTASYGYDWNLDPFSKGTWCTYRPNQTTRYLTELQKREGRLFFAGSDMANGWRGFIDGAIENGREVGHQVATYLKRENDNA

Row | Compound | HPLC and UV-Vis of cofactor released by boiling purified protein [1] | Km (CNCCCC(=O)c1cccnc1) [mM] | kcat (CNCCCC(=O)c1cccnc1) [s⁻¹]
1 | Cc1cc2nc3c(=O)[nH]c(=O)nc-3n(C[C@H](O)[C@H](O)[C@H](O)COP(=O)(O)OP(=O)(O)OC[C@H]3O[C@@H](n4cnc5c(N)ncnc54)[C@H](O)[C@@H]3O)c2cc1C [FAD, Flavin adenine dinucleotide] | These results indicated that FAD was the cofactor associated with Pnao |  | 
2 | Pnao (pseudooxynicotine amine oxidase) (Pseudomonas putida S16) |  | 0.073 ± 0.018 | 0.790 ± 0.074
